Reference: US20210146029A1

Target: sTNF-R1 (soluble Tumor Necrosis Factor Receptor 1), spiked into buffer or human plasma (UniProt P19438)
Assay: column run with spiked human plasma (9.74 ng/mL sTNF-R1), pre- against post-column concentration at each time point

UniProt P19438, sequence (P19438 30-211 limits assumed): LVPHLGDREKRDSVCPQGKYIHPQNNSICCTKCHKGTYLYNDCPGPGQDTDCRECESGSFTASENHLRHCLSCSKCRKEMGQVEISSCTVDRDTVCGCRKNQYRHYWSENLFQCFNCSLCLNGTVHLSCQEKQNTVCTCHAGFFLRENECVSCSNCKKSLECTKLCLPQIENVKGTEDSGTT

“recombinant single chain TNFα ligand (sc-TNFα ligand, comprising 3 TNFα monomers), covalently linked to agarose beads” was tested. Which binding efficiency did it give?
The binding efficiency was over 95%.
